# Data reported in paper PMC11480844 (2024).
# B1: H2-Kb / Ed21 (parent complex)
# chain 1: AQSVTQPDARVTVSEGASLQLRCKYSYFGTPYLFWYVQYPRQGLQLLLKYYPGDPVVQGVNGFEAEFSKSNSSFHLRKASVHWSDWAVYFCAVSMSGGYKVVFGSGTRLLVSP
# chain 2: DSGVVQSPRHIIKEKGGRSVLTCIPISGHSNVVWYQQTLGKELKFLIQHYEKVERDKGFLPSRFSVQQFDDYHSEMNMSALELEDSAMYFCASSPRQTDYTFGSGTRLLVI
# chain 3: not shown
# chain 4: IQKTPQIQVYSRHPPENGKPNILNCYVTQFHPPHIEIQMLKNGKKIPKVEMSDMSFSKDWSFYILAHTEFTPTETDTYACRVKHDSMAEPKTVYWDRDM
# chain 5: SIINFEKL
# B2: H2-Kb / Ed5 (parent complex)
# chain 1: GDSVTQTEGPVTVSESESLIINCTYSATSIAYPNLFWYVRYPGEGLQLLLKVITAGQKGSSRGFEATYNKETTSFHLQKASVQESDSAVYYCALGSYNQGKLIFGQGTKLSIKP
# chain 2: DTTVKQNPRYKLARVGKPVNLICSQTMNHDTMYWYQKKPNQAPKLLLFYYDKILNREADTFEKFQSSRPNNSFCSLYIGSAGLEYSAMYLCASSRRLGASQNTLYFGAGTRLSVL
# chain 3: not shown
# chain 4: B1 chain 4
# chain 5: SIINFEKL
# Variants of: B1
# Test: % of reporter cells activated (NFAT-GFP), raw
# Note: test concentration or dose not given here.
row,Variant,ratio to parent
1,chain 5 I3E,0.924
2,chain 5 I3N,0.961
3,chain 5 I3K,0.851
4,chain 5 I3M,0.99
5,chain 5 I3F,0.869
6,chain 5 I3V,0.872
7,chain 5 I3T,0.952
8,chain 5 I3W,0.869
9,chain 5 I3C,0.989
10,chain 5 I3Q,0.902
11,chain 5 I3Y,0.966
12,chain 5 I3R,0.775
13,chain 5 L8P,0.996
14,chain 5 L8V,0.686
15,chain 5 L8N,0.888
16,chain 5 L8F,0.826
17,chain 5 L8S,0.78
18,chain 5 L8W,0.734
19,chain 5 L8A,0.819
20,chain 5 L8K,0.901
21,chain 5 L8M,0.887
22,chain 5 L8Q,0.894
23,chain 5 L8R,0.997
24,chain 5 L8E,0.685
25,chain 5 L8I,0.859

row,Variant,ratio to parent
1,chain 5 L8C,0.882
2,chain 5 E6S,0.641
3,chain 5 E6F,0.226
4,chain 5 E6I,0.0493
5,chain 5 E6M,0.593
6,chain 5 E6N,0.884
7,chain 5 E6L,0.329
8,chain 5 E6P,0.554
9,chain 5 E6H,0.59
10,chain 5 E6K,0.949
11,chain 5 E6C,0.0832
12,chain 5 E6Y,0.366
13,chain 5 K7H,0.997
14,chain 5 K7Y,0.745
15,chain 5 K7I,0.799
16,chain 5 K7L,0.785
17,chain 5 K7S,0.785
18,chain 5 K7F,0.261
19,chain 5 K7V,0.788
20,chain 5 S1N,0.724
21,chain 5 S1R,0.785
22,chain 5 S1D,0.911
23,chain 5 S1P,0.808
24,chain 5 S1W,0.616
25,chain 5 S1E,0.93

row,Variant,ratio to parent
1,chain 5 S1F,0.805
2,chain 5 S1C,0.604
3,chain 5 S1A,1.02
4,chain 5 S1G,0.933
5,chain 5 S1L,0.793
6,chain 5 S1I,0.745
7,chain 5 S1M,0.954
8,chain 5 I2G,1
9,chain 5 I2Q,0.904
10,chain 5 I2M,0.976
11,chain 5 I2L,1.02
12,chain 5 I2K,0.906
13,chain 5 I2T,1.01
14,chain 5 I2D,0.924
15,chain 5 I2Y,0.814
16,chain 5 I2N,1.01
17,chain 5 I2H,0.926
18,chain 5 I2W,0.861
19,chain 5 I2F,0.951
20,chain 5 I2R,0.916
21,chain 5 N4E,0.189
22,chain 5 N4K,0.566
23,chain 5 N4S,0.271
24,chain 5 N4I,0.389
25,chain 5 N4C,0.162

row,Variant,ratio to parent
1,chain 5 N4Q,0.015
2,chain 5 N4M,0.00791
3,chain 5 N4T,0.165
4,chain 5 N4H,0.47
5,chain 5 N4Y,0.0148
6,chain 5 N4V,0.0259
7,chain 5 N4F,0.0275
8,chain 5 N4G,0.182
9,chain 5 N4A,0.498
10,chain 5 F5H,0.947
11,chain 5 F5T,0.964
12,chain 5 F5R,0.958
13,chain 5 F5L,1.05
14,chain 5 F5E,0.856
15,chain 5 F5C,1.04
16,chain 5 F5G,0.873
17,chain 5 F5V,0.909
18,chain 5 F5A,1.05
19,chain 5 F5Y,1.05
20,chain 5 F5D,0.905
21,chain 5 F5M,0.981
22,chain 5 F5Q,0.939

# Now from value to variant:
row,ratio to parent,Variant
1,1.03,chain 5 I3L
2,1,chain 5 I3H
3,0.901,chain 5 I3S
4,0.872,chain 5 I3A
5,0.575,chain 5 I3D
6,0.636,chain 5 I3G
7,0.927,chain 5 I3P
8,0.783,chain 5 L8T
9,0.976,chain 5 L8Y
10,1.03,chain 5 L8H
11,0.785,chain 5 L8D
12,0.845,chain 5 E6A
13,0.936,chain 5 E6R
14,0.46,chain 5 E6T
15,0.964,chain 5 E6D
16,0.785,chain 5 E6G
17,0.0831,chain 5 E6W
18,0.374,chain 5 K7C
19,0.752,chain 5 K7T
20,0.568,chain 5 K7Q
21,1.02,chain 5 K7R
22,0.418,chain 5 K7M
23,0.141,chain 5 K7D

row,ratio to parent,Variant
1,0.667,chain 5 K7P
2,0.605,chain 5 K7G
3,0.0818,chain 5 K7E
4,0.645,chain 5 K7A
5,0.717,chain 5 K7W
6,0.979,chain 5 S1H
7,0.9,chain 5 S1V
8,0.983,chain 5 S1Q
9,0.97,chain 5 S1Y
10,0.664,chain 5 S1K
11,0.995,chain 5 I2C
12,1.04,chain 5 I2A
13,0.975,chain 5 I2P
14,0.964,chain 5 I2E
15,1.01,chain 5 I2S
16,0.017,chain 5 N4W
17,0.0248,chain 5 N4P
18,0.476,chain 5 N4R
19,0.487,chain 5 N4D
20,0.952,chain 5 F5K
21,1.03,chain 5 F5P
22,0.866,chain 5 F5W

# Variants of: B2
# Test: % of reporter cells activated (NFAT-GFP), raw
row,Variant,ratio to parent
1,chain 5 I2M,0.917
2,chain 5 L8F,0.694
3,chain 5 N4V,0.0109
4,chain 5 F5D,0.92
5,chain 5 S1A,0.322
6,chain 5 K7W,0.543

# The next lines start with the values.
row,ratio to parent,Variant
1,0.648,chain 5 K7Q
2,0.162,chain 5 I3Q
